Source: publication PMC11528121, “Structural basis of the bacterial flagellar motor rotational switching” (Cell Research, 2024)

B1: FliM (natural protein, UniProt P26418 1-334, looked up)
chain: MGDSILSQAEIDALLNGDSDTKDEPTPGIASDSDIRPYDPNTQRRVVRERLQALEIINERFARQFRMGLFNLLRRSPDITVGAIRIQPYHEFARNLPVPTNLNLIHLKPLRGTGLVVFSPSLVFIAVDNLFGGDGRFPTKVEGREFTHTEQRVINRMLKLALEGYSDAWKAINPLEVEYVRSEMQVKFTNITTSPNDIVVNTPFHVEIGNLTGEFNICLPFSMIEPLRELLVNPPLENSRHEDQNWRDNLVRQVQHSELELVANFADIPLRLSQILKLKPGDVLPIEKPDRIIAHVDGVPVLTSQYGTVNGQYALRVEHLINPILNSLNEEQPK
notes: FliM, flagellar motor switch protein of the C ring, Salmonella Typhimurium LT2; domains FliMN, FliMM, FliMC; Subunit of the purified complex m8; 34 copies in the C ring; also called FliMN; FliMM
B2: FliF (natural protein, UniProt P15928 1-560, looked up)
chain: MSATASTATQPKPLEWLNRLRANPRIPLIVAGSAAVAIVVAMVLWAKTPDYRTLFSNLSDQDGGAIVAQLTQMNIPYRFANGSGAIEVPADKVHELRLRLAQQGLPKGGAVGFELLDQEKFGISQFSEQVNYQRALEGELARTIETLGPVKSARVHLAMPKPSLFVREQKSPSASVTVTLEPGRALDEGQISAVVHLVSSAVAGLPPGNVTLVDQSGHLLTQSNTSGRDLNDAQLKFANDVESRIQRRIEAILSPIVGNGNVHAQVTAQLDFANKEQTEEHYSPNGDASKATLRSRQLNISEQVGAGYPGGVPGALSNQPAPPNEAPIATPPTNQQNAQNTPQTSTSTNSNSAGPRSTQRNETSNYEVDRTIRHTKMNVGDIERLSVAVVVNYKTLADGKPLPLTADQMKQIEDLTREAMGFSDKRGDTLNVVNSPFSAVDNTGGELPFWQQQSFIDQLLAAGRWLLVLVVAWILWRKAVRPQLTRRVEEAKAAQEQAQVRQETEEAVEVRLSKDEQLQQRRANQRLGAEVMSQRIREMSDNDPRVVALVIRQWMSNDHE
notes: FliF, MS ring protein, Salmonella Typhimurium LT2; RBM1, RBM2, RBM3, β-collar, C-terminal region FliFC; Subunit of the purified complex m8; 34 copies in the MS ring; also called FliFC; MS ring protein
B3: CheY D13K/Y106W (constitutively active double mutant) (natural protein)
chain: MADKELKFLVVDKFSTMRRIVRNLLKELGFNNVEEAEDGVDALNKLQAGGFGFIISDWNMPNMDGLELLKTIRADSAMSALPVLMVTAEAKKENIIAAAQAGASGWVVKPFTAATLEEKLNKIFEKLGM
notes: CheY, chemotaxis signal protein, gene amplified from genomic DNA of Salmonella enterica serovar Typhimurium LT2; double mutant D13K/Y106W; Tag linked through an HRV3C protease site; residues of the site may remain at the C-terminus after cleavage; Vector pET-14b; source: E. coli BL21 (DE3), purified (Streptactin column, PreScission protease digestion, Superdex 75); not shown: Twin-Strep-tag II, …
B4: FliN (natural protein, UniProt P26419 1-137, looked up)
chain: MSDMNNPSDENTGALDDLWADALNEQKATTTKSAADAVFQQLGGGDVSGAMQDIDLIMDIPVKLTVELGRTRMTIKELLRLTQGSVVALDGLAGEPLDILINGYLIAQGEVVVVADKYGVRITDIITPSERMRRLSR
notes: FliN, flagellar motor switch protein of the C ring, Salmonella Typhimurium LT2; FliN1, FliN2 and FliN3 are the three copies in one protomer; Subunit of the purified complex m8; 102 copies in the C ring; also called FliN1; FliN2
B5: FlgC (natural protein)
chain: MALLNIFDIAGSALAAQSKRLNVAASNLANADSVTGPDGQPYRAKQVVFQVDAAPGQATGGVKVASVIESQAPEKLVYEPGNPLADANGYVKMPNVDVVGEMVNTMSASRSYQANIEVLNTVKSMMLKTLTLGQ
notes: FlgC, proximal rod protein of the flagellar basal body, Salmonella Typhimurium LT2; Subunit of the purified complex m8; 6 copies in the rod; also called FlgC^1; FlgC^6
B6: FliG (natural protein, UniProt P0A1J9 1-331, looked up)
chain: MSNLSGTDKSVILLMTIGEDRAAEVFKHLSTREVQALSTAMANVRQISNKQLTDVLSEFEQEAEQFAALNINANEYLRSVLVKALGEERASSLLEDILETRDTTSGIETLNFMEPQSAADLIRDEHPQIIATILVHLKRSQAADILALFDERLRHDVMLRIATFGGVQPAALAELTEVLNGLLDGQNLKRSKMGGVRTAAEIINLMKTQQEEAVITAVREFDGELAQKIIDEMFLFENLVDVDDRSIQRLLQEVDSESLLIALKGAEPPLREKFLRNMSQRAADILRDDLANRGPVRLSQVENEQKAILLIVRRLAETGEMVIGSGEDTYV
notes: FliG, flagellar motor switch protein of the C ring, Salmonella Typhimurium LT2; domains FliGN, FliGM, FliGCN, FliGCC; Subunit of the purified complex m8; 34 copies in the C ring; also called FliGN; FliGM
B7: FliE (natural protein, UniProt P26462 1-104, looked up)
chain: MAAIQGIEGVISQLQATAMAARGQDTHSQSTVSFAGQLHAALDRISDRQAAARVQAEKFTLGEPGIALNDVMADMQKASVSMQMGIQVRNKLVAAYQEVMSMQV
notes: FliE, rod protein of the flagellar basal body, Salmonella Typhimurium LT2; Subunit of the purified complex m8; 6 copies in the rod; also called FliE^6

Key:
[1] = target: the molecule itself; assay: cryo-EM structure; basal body–hook complex in the default CCW state purified from S. Typhimurium ΔfliCD in TET buffer (10 mM Tris-HCl pH 8.0, 5 mM EDTA, 0.1% Triton X-100); C ring C34 map 5.9 Å, four protomers 4.0 Å, whole complex 7.4 Å, local maps 3.0–4.3 Å
FliM [2] = target: B1; assay: cryo-EM structure; 5 μL purified CCW basal body–hook complex mixed with 1 μL CheY** (2 mg/mL), 15 min at room temperature, 1.5 h on ice; CW state; C ring C34 map 5.6 Å, four protomers 4.4 Å, whole complex 4.3 Å, local maps 2.8–3.8 Å; details: both partners purified
[3] = target: T1, C ring-containing flagellar basal body–hook complex in the default CCW state (Salmonella enterica serovar Typhimurium …, UniProt P0A1J9 1-331; P26418 1-334; P26419 1-137; P15928 1-560; P54700 22-245; P54702 …); assay: as above; details: both partners purified
T1 construct: FliG, C ring, Salmonella Typhimurium LT2; FliM, C ring, Salmonella Typhimurium LT2; FliN, C ring, Salmonella Typhimurium LT2; FliF, MS ring, Salmonella Typhimurium LT2; FliP, export apparatus, Salmonella Typhimurium LT2; FliR, export apparatus, Salmonella Typhimurium LT2; FliQ, export apparatus, Salmonella Typhimurium LT2; FliE, rod, Salmonella Typhimurium LT2; FlgB, rod, Salmonella Typhimurium …

FliM [4] = target: B1; assay: cryo-EM structure; basal body–hook complex in the default CCW state purified from S. Typhimurium ΔfliCD in TET buffer (10 mM Tris-HCl pH 8.0, 5 mM EDTA, 0.1% Triton X-100); C ring C34 map 5.9 Å, four protomers 4.0 Å, whole complex 7.4 Å, local maps 3.0–4.3 Å; details: both partners purified
FliF [5] = target: B2; assay: as above; details: both partners purified
FliF [6] = target: B2; assay: cryo-EM structure; 5 μL purified CCW basal body–hook complex mixed with 1 μL CheY** (2 mg/mL), 15 min at room temperature, 1.5 h on ice; CW state; C ring C34 map 5.6 Å, four protomers 4.4 Å, whole complex 4.3 Å, local maps 2.8–3.8 Å; details: both partners purified

With B1 the “stoichiometry N” value [1] was 34.

In the case of B2, the “stoichiometry N” value [1] is reported as 34.

With B3 the binding result (FliM [2]) was “binds” and the “stoichiometry N” value [3] was 34.

In the case of B4, the “stoichiometry N” value (FliM [4]) is reported as 3 and the binding result [1] is reported as “binds”.

B5: binds (FliF [5]).

With B6 the binding result (FliF [6]) was “binds”, the “stoichiometry N” value (FliM [4]) was 1 and the “stoichiometry N” value [1] was 34.

B7: binds (FliF [5]).
